Experimental findings from article doi:10.1101/2022.10.12.511839 (bioRxiv, 2022) are described below.

For orientation: Kd means the concentration at which binding is half-saturated. High values mean lower affinity, low ones higher affinity.

Experiment [1] concerns the target T1, human Scribble PDZ3 domain (1005-1094) (human, UniProt Q14160 1005-1094).
T1 sequence (looked up): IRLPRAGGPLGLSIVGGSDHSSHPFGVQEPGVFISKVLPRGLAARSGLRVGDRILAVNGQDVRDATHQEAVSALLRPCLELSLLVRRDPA
Nature of the experiment: ITC. For orientation: In ITC the heat of successive injections is recorded.

For experiment [2], the target named is human Scribble PDZ1 domain (728-815) (human, UniProt Q14160 728-815). Nature of the experiment: ITC.
Sequence of human Scribble PDZ1 domain (728-815) (Q14160 728-815): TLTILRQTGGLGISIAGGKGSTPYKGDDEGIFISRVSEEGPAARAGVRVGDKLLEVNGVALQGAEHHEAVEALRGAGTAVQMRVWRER

B1: HPV70 E6 C-terminal PBM 10-mer peptide (RRRIRRETQV) (peptide)
peptide: RRRIRRETQV
Turning to B1, the binding result in experiment [1] and in experiment [2] was “binds” each time.

B2: HPV66 E6 C-terminal PBM 10-mer peptide (TSRQATESTV) (peptide)
peptide: TSRQATESTV
Turning to B2, the binding result in experiment [1] and in experiment [2] was “binds” throughout.

B3: HPV33 E6 C-terminal PBM 10-mer peptide (WRSRRRETAL) (peptide)
peptide: WRSRRRETAL
In the case of B3, the binding result in experiment [1] and in experiment [2] was “binds” in each case.

B4: HPV31 E6 C-terminal PBM 10-mer peptide (WRRPRTETQV) (peptide)
peptide: WRRPRTETQV
Consider B4, for which the binding result in experiment [1] and in experiment [2] was “binds” throughout.

B5: HPV18 E6 C-terminal PBM 10-mer peptide (RLQRRRETQV) (peptide)
peptide: RLQRRRETQV
With B5, in experiment [1], the binding result is “binds”.

B6: HPV51 E6 C-terminal PBM 10-mer peptide (RTRQRNETQV) (peptide)
peptide: RTRQRNETQV
As for B6, the binding result in experiment [1] and in experiment [2] was “binds” each time.

B7: HPV16 E6 C-terminal PBM 10-mer peptide (SSRTRRETQL) (peptide)
peptide: SSRTRRETQL
With B7, in experiment [2], the Kd came out at 9.4 µM. In other words, the single-digit micromolar range.
